Positions count from the first letter of the chain named. Where only a bound is given, the exact number is not on record here.

What is called Kd is the constant that tells how readily two partners part at equilibrium.

B1: ADI-41155 (antibody, V domains shown)
VH: QVQLQESGPGLVKPSETLSLTCTVSGGSIGNNFYYWGWIRQPPGKGLEWIGSIYYSGTTYDNPSLKSRVTISVEPSKNQFSLKLSSVTAADTAVYHCARRYCDSTRCYEAFDIWGQGTTVTVSS
VL: SYELTQPPSASGTPGQRVTISCSGSSSNIGSNYVSWYQQLPGTAPKLLIYKNDQRPSGVPDRFSGSKSGTSASLAISGLRSEDEAEYYCAAWDDSLSGFYVFGTGTKVTVL
B2: ADI-41161 (antibody, V domains shown)
VH: EVQLVESGGGLVQPGGSLRLSCAASGFTFSTFEFNWVRQAPGKGLEWLSYISSDDTTRYYADSVKGRFTISRDNAKNSLYLQMNSLRAEDTAYYYCVRGGPYDYVWGTYRYFDFWGQGTLVTVSS
VL: QSVLTQPASVSGSPGQSITISCTGTSSDIGGYNYVSWYQQHPGKAPKLMIYDVTNRPLGVSNRFSGSKSGNTASLIISGLQAEDEAEYYCCSYTSSNSLVFGGGTKLTVL
B3: ADI-41171 (antibody, V domains shown)
VH: EVQLVESGPGLVKPSQTLSLTCTVSGGSISSGGDYWSWVRQRPGKGLEWIGYIYNSGSGYYNPSLKNRVSMSMHTSRNQFSLRLSSVTAADTAFYYCARDPFYRSGGIHYFDYWGQGALVTVSS
VL: DIVLTQTPGTLSLSPGEGATLSCRASPSVGSTSLAWYQQKPGQAPRLLIYGASSRATGIPDRFSGSGSGTDFTLTISRLEPEDFAVYYCQQDGGLPITFGLGTRLEIK
B4: ADI-41173 (antibody, V domains shown)
VH: QVQLVQSGAEMKKPGSSAKVSCKASGGTLSSYAINWVRQAPGQGLEWMGGIIPIFGTTKYAPKFQDRVTITVDESTSTAYMELSSLRSEDTAVYYCSRESSTWDVAHYFDYWGQGTLVTVSS
VL: DIVMTQTPSAISASVGDRVTITCRASQGISNYLAWVQQKPGKVPKRLIYGASSLQSGVPSRFSGSGSGTEFTLTISSLQPEDFATYYCLQHNSYPYTFGQGTKVEIK
B5: ADI-41181 (antibody, V domains shown)
VH: QVQLVQSGAEVKKPGSSVKVSCKASGGSFSSYTLNWVRQAPGQGLEWMGRFVPIVGIANYAQKFQGRVTITADKSTSTVYMELSSLRSEDTAVYYCATAPTAYCSGDCYSLFDPWGQGTLVTVSS
VL: QSVLIQPASVSGSPGQSITISCTGISSDVGSYNLVSWYQQHPGKAPKLIIYEVNKRPSGVSNRFSGSKSGNTASLTISGLQAEDEADYYCCSYAVSRTSLYVFGTGTKVTVL
B6: ADI-41160 (antibody, V domains shown)
VH: QVQLVQSGAEVKKPGSSVKVSCKASGGTFSSYPIIWVRQAPGQGLEWMGRIIPILGIASYAQKFQGRVTITADKSTSTAYMELSSLRSEDTAVYYCARNSDFYYGMDVWGQGTTVTVSS
VL: QSALIQPASVSGSPGQSITISCTGTSSDVGGYNYVSWYQHHPGKAPKLMIYDVSNRPSGISNRFSGSKSGNTASLTISGLQAEDEADYYCSSYTSSSLYVFGTGTKVTVL
B7: ADI-41185 (antibody, V domains shown)
VH: QVQLQQWGAGLLKPSETLSLTCAVYGGSFSSYYYSWIRQPPGKGLEWIGEINQSGSTNYNPSLKSRVTISVDTSKNEFSLKLSSVTAADTAVYYCARIVREFNTRWYDYYYMDVWGKGTTVTVSS
VL: DIRVTQSPATLSLSPGERATLSCRTSQSISSSYLAWYQQKFGQAPRLLIYGASSRATGIPDRFSGSGSGTDFTLTISRLEPEDFAVYYCQQYGISPPMYTFGQGTKVEIK
B8: ADI-41162 (antibody, V domains shown)
VH: EVQLVQSGAEVKKPGSSVKVSCKASGVTGGTFSSYAISWVRQAPGQGLEWMGGIMPMFGTTNYAQKFQGRVTITADKSTSTAYMELSSLRSEDTAVYYCARDYRDFSPHLDYYYMDVWGKGTTVTVSS
VL: DIRLTQSPGTLSLSPGERATLSCRASQSVSTSYLAWYQQKPGQAPRLLIYGASNRATGIPDRFSGSGSGTDFTLTISRLEPEDFAVYYCQQYGRTSWTFGQGTKVDIK
B9: ADI-41166 (antibody, V domains shown)
VH: EVQLVQSGAEVKKPGASVKVSCKTSGYTFTGDYLHWVRQAPGQGLEWMGRLNPKSGGTVYAQRFQGRVTMTGDTSVTTAYMQLTRLRSDDTAIYYCARGIPVSGPVSIDYWGQGTLVTVSS
VL: QSVLTQPASLSGSPGQSITISCTGTSSDVGGYGYVSWYQQHPGKAPKLMIYDVANRPSGVSHRFSGSKSGNTASLTISGLQADDEADYYCSSYTRSNTVVFGGGTKLTVL
B10: ADI-41184 (antibody, V domains shown)
VH: EVQLLETGGGLVQPGGSLRLSCAASGFTFSSYDMNWVRQAPGKGLEWVSTISGSGGPTYYAGSVKGRFTISRDNSKNTLYLQMNSLRADDTAVYYCAKAQLYDTSGYYLYYFDYWGQGTLVTVSS
VL: DIRMTQSPSSLSASVGDRVTITCRASQRITSYLNWYQQKPGKAPKLLIYAASSLQSGVPSRFSGSGSGTDFTLTISSLQPEDFATYFCQQSYSTSFTFGPGTKVDIK
B11: ADI-41182 (antibody, V domains shown)
VH: QVQLVQSGAEVKKPGESLKISCQGSGYSFTSYWIGWVRQMPGKDLEWMGIIYPSDSDTRYSPSFQGQVTISVDKSINTAYLQWTSLKASDTAMYYCARCDGAVYWYFDLWGRGTLVTVSS
VL: EIVLTQSPATLSVSPGERVTLSCRASRSVSSHLAWYQQKPGQAPRLLMYGASTRATGIPARFSGSGSGTEFTLTISSLQSEDFGVYYCQQYNNWPPALTFGGGTKLEIK
B12: ADI-41170 (antibody, V domains shown)
VH: EVQLLESGGGLIQPGGSLRLSCAASGFTFNNYVMSWVRQAPGKGLEWVAAISSSGVSTYYAASVKGRFTISRDNSKNMLYVQLNSLRAEDTAVYYCAKETGSYYYFDSWGQGTLVTVSS
VL: ETTLTQSPSTLSGSVGDRVTITCRASESISSWLAWYQQKPGKAPKLLIYKASNLESGVPSRFSGSGSGTEFTLTISSLQPDDFATYYCQQYNSYLITFGQGTRLEIK
B13: ADI-41183 (antibody, V domains shown)
VH: QVQLQESGAGLVKPSETLSLTCGVYGESFSGHSWSWIRQPPGRGLEWIGEINQSGTTKYNPSLRSRVTISVDRSKNEFSLKVSSVTAADTAVYFCARYFRSFYTIGPDYYYMDVWGKGTTVTVSS
VL: EIVLTQSPSSLSASVGDRVTITCRASQNINNYLNWYQQKPGKAPRLLIYAASSLQSGVPSRFTGSGSGTDFTLTIRSLQSEDFATYYCQHSYSSSLLTFGGGTKVDIK
B14: ADI-41163 (antibody, V domains shown)
VH: QVQLVQSGGGVVQPGRSLRLSCAASGFPFHSYAMHWVRQAPGKGLEWVAVIWYEGSEKHYADSVQGRFTISRDNSKNMLYLQMNNLRVADTAVYYCARRGAWGFDIWGQGTTVTVSS
VL: DIVMTQTPLSLPVTPGEPASISCRSSQSVLHSTGYNSLDWYLQKPGQSPQLLIFLGSNRASGVPDRFSGSGSGTDFTLKISRVEAEDVGVYYCMQGLQTPYTFGQGTKVEIK
B15: ADI-41175 (antibody, V domains shown)
VH: EVQLLESGGGVVQPGRSLRLSCATSGFTFSSYGMHWVRQAPGKGLEWVAVIYYEGSNKYYGDSVKGRFTISRDNSKSTLYLQMNRLRAEDTAVYYCARRPAGGFDYWGPGTLVTVSS
VL: B14 VL with D1E, T7S, S28N, V29L, H31N, T33N, S37Y, F54Y, G96A, V109L
B16: ADI-41179 (antibody, V domains shown)
VH: QVQLVQSGAEVKKPGSSVKISCKASGGTFSSHPISWVRQAPGQGLEWMGRIVPIFGIANYAQKFQGRVTMIADKSTNTAYMELSNLRSEDTAVYYCANPVYDSSGFQWGQGTLVTVSS
VL: QPVLTQPRSVSGSPGQSVTISCTGTSGDGGFYNYVSWYQQHPGKTPKLMIYDVDQRPSGVPDRFSGSKSGNTASLTISGLQAEDEADYYCCSYPGNPLYVFGTGTKVTVL
B17: ADI-41169 (antibody, V domains shown)
VH: EVQLVESGAEVKKPGESLKISCEAFGYSFTSYWIGWVRQVPGRGLEWIGVIYPGDSDIRYTPSFRGQVTISADRSISTAYLQWNNLKASDTAMYYCARPGRDINYYHSRDYGALDIWGQGTTVTVSS
VL: DIQLTQSPDSLAVSLGERVTINCKSSQSFLYSSNNKNYLAWYQQKPGQPPKLLIYWASVRESGVPDRFSGSGSGTDFTLTISSLQAEDVAVYYCQEYYSPPMFTFGQGTKVEIK

In the first assay the target is RSV postfusion F (postF), F deltaFP (Respiratory Syncytial Virus). Kind of assay: BLI, IgG on anti-human IgG sensor, 100 nM antigen. For orientation: In BLI a coated tip is dipped into the sample, and binding shifts an interference pattern.
B1 had a Kd of 0.478 nM.

For B2, the Kd was determined as 0.364 nM.

Consider B3, for which the Kd is 4.26 nM.

The molecule B4 came in with a Kd of 0.294 nM. This Kd is about 14-fold lower than that of the molecule before.

For B5, the Kd was 0.936 nM.

Molecule B6 had a dissociation constant Kd of 0.337 nM.

Regarding B7, the dissociation constant Kd was found to be 0.809 nM.

In turn, B8 yielded a Kd of 0.748 nM.

Turning to B9, the Kd was 0.44 nM.

With B10, the dissociation constant (Kd) was determined as 0.532 nM.

Consider B11, for which the Kd came out at 0.462 nM. This Kd and that of the molecule before are within 1.5-fold of each other.

Turning to B12, the dissociation constant (Kd) was determined as 2.64 nM. Compared with the last molecule, the Kd is about 5.7-fold higher.

For B13, the Kd is 1 nM. Against the preceding molecule, the Kd is about 2.6-fold lower.

For B14, the Kd worked out at 0.604 nM. This Kd lies about 1.7-fold lower than the previous one.

Consider B15, for which the Kd is 1.07 nM.

B16 returned a Kd of 0.342 nM.

B17 displayed a Kd of 1.19 nM.

The target in a further assay is RSV prefusion F (preF), DS-Cav1 (Respiratory Syncytial Virus). Kind of assay: BLI, IgG on anti-human IgG sensor, 100 nM antigen.
Molecule B1 returned a Kd of 3.52 nM.

Regarding B2, the dissociation constant Kd was 2.54 nM.

The molecule B3 displayed a Kd of 9.8 nM. Against the preceding molecule, the Kd is about 3.9-fold higher.

As for B4, the Kd is 0.315 nM.

In turn, B5 came in with an equilibrium dissociation constant (Kd) of 1.95 nM.

B6: the Kd was found to be 2.41 nM.

B7: the Kd is 3.23 nM.

In turn, B8 had a Kd of 4.06 nM. This Kd and that of the molecule before are within 1.5-fold of each other.

B9 had a Kd of 3.15 nM.

Regarding B10, the Kd was found to be 2.85 nM.

B11: the Kd amounted to 2.55 nM.

The molecule B12 showed a Kd of 5.67 nM.

Consider B13, for which the Kd is 4.08 nM.

B14: the Kd came out at 4.65 nM.

On to B15, for which the Kd stood at 4.25 nM. This Kd and that of the molecule before are within 1.5-fold of each other.

Regarding B16, the Kd worked out at 0.948 nM.

B17 showed a Kd of 4.94 nM.

For the next assay, the target named is Respiratory Syncytial Virus fusion glycoprotein (RSV F) on RSV-A2 virus (Respiratory Syncytial Virus subtype A (RSV-A2)). Kind of assay: cell-based or functional assay.
In the case of B1, the Neutralization IC50 (RSV subtype A) was over 25 µg/mL.

For B2, the Neutralization IC50 (RSV subtype A) was over 25 µg/mL.

For the molecule B3, the Neutralization IC50 (RSV subtype A) is over 25 µg/mL.

In turn, B4 registered a Neutralization IC50 (RSV subtype A) of 0.08 µg/mL.

B5 returned a Neutralization IC50 (RSV subtype A) of over 25 µg/mL.

B6 had a Neutralization IC50 (RSV subtype A) of over 25 µg/mL.

Take B7: the Neutralization IC50 (RSV subtype A) is over 25 µg/mL.

In the case of B8, the Neutralization IC50 (RSV subtype A) was over 25 µg/mL.

Molecule B9 registered a Neutralization IC50 (RSV subtype A) of over 25 µg/mL.

B10 had a Neutralization IC50 (RSV subtype A) of over 25 µg/mL.

Regarding B11, the Neutralization IC50 (RSV subtype A) was over 25 µg/mL.

B12: the Neutralization IC50 (RSV subtype A) was over 25 µg/mL.

In turn, B13 displayed a Neutralization IC50 (RSV subtype A) of over 25 µg/mL.

The molecule B14 came in with a Neutralization IC50 (RSV subtype A) of over 25 µg/mL.

For B15, the Neutralization IC50 (RSV subtype A) is over 25 µg/mL.

Take B16: the Neutralization IC50 (RSV subtype A) was over 25 µg/mL.

For the molecule B17, the Neutralization IC50 (RSV subtype A) is over 25 µg/mL.

These data come from patent US20260258115A1.
